Results reported in the RNAGym collection of RNA variant scans (doi:10.1073/pnas.2313332121).
Variants at the floor of the assay were thinned out.

B1: TPR 5TU (parent)
chain: GGAUCUUCUCGAUCUAACAAAAAAGACAAAUCUGCCACAAAGCUUGAGAGCAUCUUCGGAUGCAGAGGCGGCAGCCUUCGGUGGCGCGAUAGCGCCAACGUUCUCAACUAUGACACGCAAAACGCGUGCUCCGUUGAAUGGAGUUUAUCAUG

Variants of: B1
Assay: polymerase ribozyme fitness, log enrichment relative to wild type (log ratio); higher = more active; in vitro selection for triplet polymerase activity
Outline: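 In triplicate, a single round of in vitro selection was run on each mutant library, PCR-built and transcribed, covering one subunit of a heterodimeric triplet polymerase ribozyme. Frozen incubation at −7 °C followed annealing with a biotinylated primer, partner subunit and triplets, and extended constructs were then gel-excised, streptavidin-captured and taken through RT-PCR. Fitness is the logarithm of genotype enrichment over wild-type enrichment, from inverse-variance-weighted replicate averages of Illumina-sequenced inputs and outputs. […] only genotypes with ≥10 input reads and ≥1 read per output were kept.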

| Variant | polymerase ribozyme fitness (log ratio) |
| --- | --- |
| C54U U55G G80U A91G A98C | -3.9 |
| U55G G84A | -1.68 |
| U53A U104G | -1.97 |
| U55A A64G | -3.3 |
| C54G G58A A89U A98G G133C | -2.63 |
| C54U U55G U56A C69U A73C A115U | ≤ -4.2 |
| U56A C75U | -0.839 |
| U55G G86U U145A | -0.475 |
| C54A G124A C125U A147C | -2.1 |
| C54U G86U A150U | -0.319 |
| U53C C116G | 0.204 |
| U55A C96U | -0.113 |
| U55A G83A C105G C118A | -3.78 |
| U56A C85U C114A G141C | ≤ -4.2 |
| U56A C76U A113C | -2.48 |
| C54A C132U | -2.3 |
| U55C C95A C96G G117C | -2.16 |
| U55A G59C | 0.269 |
| U53A U144G | -2.22 |
| U55A U61G | -3.71 |
| U53C U55C C105U | -1.88 |
| C54A U61C G65A G88U C95G C103G A115C A119C U135G U144G | ≤ -4.2 |
| C54U C72U U135C | -3.15 |
| U53A U102G G133U U144G | ≤ -4.2 |

| Variant | polymerase ribozyme fitness (log ratio) |
| --- | --- |
| U55C C57A A73G C96U A121C C131U | 1.56 |
| U55A G84A A121U | -1.24 |
| U55A G83A G126A | 0.425 |
| C54U G68A A97G G124A U144C | -3.84 |
| U55A C79A | ≤ -4.2 |
| U55A C85A U102A | ≤ -4.2 |
| U55A C57G | -0.56 |
| C54U G59C A64C G94U A120G | ≤ -4.2 |
| U56A C85A U101G G152C | -4.1 |
| U55A A66G G86A A97G U146G | ≤ -4.2 |
| C54A G58U C99A U145A | -2.04 |
| U55G G83U C85U A89U C95A | -3.88 |
| U55A A73G U77G A91C C116A G141A | ≤ -4.2 |
| U53A U61A | -1.15 |
| U53A U61G | -0.814 |
| C54G G81A C95U | -2.33 |
| U55A C93G | -3.83 |
| C54A G71A G88C A110G | ≤ -4.2 |
| C54A A64G C76G C93U A138C | ≤ -4.2 |
| U55G C57A G62C C79U U109G | ≤ -4.2 |
| C54U C123U G124A U144C | -0.47 |
| U55A G74A | -3.26 |
| U55G A98G U139G | -0.271 |
| U56A C76U C125U U148G G152U | -3.64 |

| Variant | polymerase ribozyme fitness (log ratio) |
| --- | --- |
| U55C G124C | -1.14 |
| U53G C54G C57U C95U | -4.07 |
| C54U G84A | -0.613 |
| U53C C87G U101A | ≤ -4.2 |
| U56A C85G G86U | ≤ -4.2 |
| C54G C96U U111G G133U A137G | ≤ -4.2 |
| C54A U90G | ≤ -4.2 |
| U55C U82G C95U | -0.677 |
| C54G G80C A89G C93A | ≤ -4.2 |
| C54G C57A G58C G94A | -0.504 |
| C54U A73C G94U C116G C125A U134A | ≤ -4.2 |
| U55G U56A C57G C76A C93A | -3.7 |
| C54G C87U A122G U145C | -1.82 |
| C54U C93A | -2.6 |
| C54G C103U | -2.16 |
| C54A U77A C96G U127G | ≤ -4.2 |
| C54A G70U A91U C114U A119U A120U | ≤ -4.2 |
| C54A C116U G143U | -3.09 |
| U55A C85U C114G G128A | ≤ -4.2 |
| C54U U56A A60G G84U G126U | -1.81 |
| C54U C57G G94C U134A G136C | ≤ -4.2 |
| U56A C69A C79U C93G U151A | ≤ -4.2 |
| U55A G58C G68U G81A A91U C96A | ≤ -4.2 |
| U55G G74A C85U A110G | ≤ -4.2 |

| Variant | polymerase ribozyme fitness (log ratio) |
| --- | --- |
| C54U C69A | -3.63 |
| C54U G59A A106G | 0.342 |
| U55A A89U | -0.224 |
| C54U G59A C76A C85U | 0.107 |
| U55A C69U C85A C87U | ≤ -4.2 |
| C54U G126U | 0.161 |
| C54U C57U G83C A106C U135C | ≤ -4.2 |
| U55G A73G | -0.595 |
| U55A U82G G92A C103U G124A | -3.62 |
| C54A G80C C114A U127G G143C | ≤ -4.2 |
| C54G G58A U78G C108A G126U | ≤ -4.2 |
| U53G A150U | -1.34 |
| U55G U90G C123G U134A | ≤ -4.2 |
| U55A C76G C93U C103G G143A A150U | ≤ -4.2 |
| U55G G59U G67C U77A C96G A119C U139A U148G | ≤ -4.2 |
| C54G G74C G80A C96U A138U | ≤ -4.2 |
| U56A C75U A121C G128U | -2.63 |
| U53G G94A | -4.1 |
| U55A G128U | -3.12 |
| C54G G84C U109C U134G U148A | ≤ -4.2 |
| U55A C118G A147U | 0.0992 |
| U55G C69A C87U C105A A138U | ≤ -4.2 |
| U55G G58C C116U G143A | -1.24 |
| U55G C96U | -0.6 |

| Variant | polymerase ribozyme fitness (log ratio) |
| --- | --- |
| U55A A120U | -0.857 |
| U55G G94A A115G A122U U134C U139C G143A U148C | ≤ -4.2 |
| U55G C63A U134G | -3.01 |
| U53G G58C G92A C125G A150C | ≤ -4.2 |
| C54U U56A C93U C131G G133A U146A G152U | -4 |
| C54A G83C C85A | ≤ -4.2 |
| C54G C87U G143C | -3.99 |
| U55A G59A U61C U135C A142G | -3.84 |
| C54A G94C A107C C108G | ≤ -4.2 |
| C54U G84A C93G | ≤ -4.2 |
| U55A G83U C85A U101C C116A | ≤ -4.2 |
| U55G G94A A98U | -0.256 |
| U55A G58U C79U G88A A106G | ≤ -4.2 |
| U53G U55G C75U C76U G83A U135A | ≤ -4.2 |
| C54G C69A A73G G86U C105A C118A C125A U148A | ≤ -4.2 |
| U55A G81A C87U G136A | 0.0612 |
| C54G C87G C99G | ≤ -4.2 |
| C54U C85U | -0.491 |
| U55A C63A C96G | -2 |
| U55G C87U C129G | -3.16 |
| C54G C105U | -1.24 |
| C54U U56G C57U C76U C95G | -2.9 |
| U55G C85G G88U G92U C108U | ≤ -4.2 |
| U55C U144C | 0.187 |

| Variant | polymerase ribozyme fitness (log ratio) |
| --- | --- |
| U55G U104A A122G A137C | ≤ -4.2 |
| C54A G86U C105U | -2.87 |
| U55G C125G U151G | ≤ -4.2 |
| C54G C96G G128U | ≤ -4.2 |
| U55A G71A G80C | ≤ -4.2 |
| U55A G86A | -1.59 |
| U55A G86U | -1.44 |
| U53C C57U A60G C69A A97U G141A U146C | -0.526 |
| C54A G92U | -2.39 |
| C54U U55A A98U U144A | -1.24 |
| U55A G68A G86U U90A A97U U101A A137C U145C | ≤ -4.2 |
| U55A G65U G70U C87A C95U A98G A137C G141A G143C | ≤ -4.2 |
| C54A G86U U101G | -3.14 |
| U53A U78C U134G | -2.35 |
| U55A C57A C93U G126U | -0.627 |
| C54U G141A | -0.888 |
| C54U U82A | -0.0444 |
| U55A A98U U135A | -1.42 |
| U55A C63G | 0.923 |
| U55A A91U C108A U130C G133U | ≤ -4.2 |
| U55C A91G | -3.06 |
| U55C A91U U144A | ≤ -4.2 |
| C54U A60G A64G C85U C99A C105U A106C | ≤ -4.2 |
| C54A U56A C96U C105U G126A | -2.51 |

| Variant | polymerase ribozyme fitness (log ratio) |
| --- | --- |
| U55C C85A A119G A137U | ≤ -4.2 |
| C54A G83U U134A U148C | ≤ -4.2 |
| U55A A73G U135A U146C | -0.581 |
| U55G G86U C95U | -0.739 |
| U56A A106C U109G C114U C118A | ≤ -4.2 |
| U53G G83C | -3.03 |
| C54A G84C | -2.93 |
| C54G G86U U135A U139A | ≤ -4.2 |
| C54G U55A G94U A98C A150G | -3.84 |
| U55A C93U A150C | -4.02 |
| U55G A73U U146C | -1.74 |
| U55A A106G A113U G136C | ≤ -4.2 |
| C54U A97G C99G U135G | -3.75 |
| U53G G136C | -4.09 |
| U55G G88U G94A G124A C125G G126A A142U | ≤ -4.2 |
| U55A G59A C116A | 2.35 |
| U56A A137C | -3.11 |
| U55G G92U G117A A121U A122U U151G | ≤ -4.2 |
| U55G C96A U109G G143A | -3.3 |
| U56A | -0.324 |
| C54A G86U A97G | ≤ -4.2 |
| C54G U56G G92A | ≤ -4.2 |
| C54U C76A C96A U127C G136A | -3.34 |
